System: small intestinal organoids
Test: Ex vivo organoid culture of small intestine crypts
Type: cell-based, mouse
Experimental: Isolation of intestinal epithelial crypts was performed as previously described (26). Briefly, after harvesting small intestines, the organs were opened longitudinally and washed. Small intestine was incubated in 10 mM ethylenediamine-tetraacetatic acid (EDTA) for 25 min (4° C.) to dissociate the crypts. The supernatant containing crypts was collected.
250 crypts per well were suspended in growth factor reduced Matrigel (Corning) (33% ENR-medium; 66% growth factor reduced Matrigel) at 4° C. Then, they were plated in delta-surface Nunc 24-well plates in 30 μL drops, each containing approximately 250 crypts. […]
To determine the effect of 3pRNA/interferon stimulatory DNA/rmIFN-β on organoid size and morphology, bright-field microscopy images were taken using a Zeiss Axiovision Observer microscope with a 5× objective lens after 5 or 7 days in culture. 2D area and perimeter were analyzed using border perimeter tracing of organoids found in four representative fields of each well using Image J software. For assessment of gene expression by quantitative (q) PCR, organoids were subjected to RNA extraction 24 hours after culture using Trizol reagent (Invitrogen) according to manufacturer's protocol. Isolated RNA was reverse-transcribed using the Quantitect Reverse Transcription Kit (Qiagen). […]

B1: recombinant IFN-β: recombinant murine (rm) IFN-β (20 U/ml; PBL (12400-1)) (protein, UniProt P01575 22-182, looked up)
Interferon beta: INYKQLQLQERTNIRKCQELLEQLNGKINLTYRADFKIPMEMTEKMQKSYTAFAIQEMLQNVFLVFRNNFSSTGWNETIVVRLLDELHQQTVFLKTVLEEKQEERLTWEMSSTALHLKSYYWRVQRYLKLMKYNSYAWMVVRAEIFRNFLIIRRLTRNFQN
number of organoids (7 days in culture, IFN-β 20 U/ml or α-IFNaR1 Ab 10 ug/ml): Neither recombinant IFN-β nor IFNAR blockade could influence
organoid size (recombinant murine IFN-β 20 U/ml, 5 or 7 days in culture): increased organoid size

Reference: US20200108091A1, “GUT-PROTECTIVE EFFECT OF RIG-1/MAVS AND STING ACTIVATION” (MEMORIAL SLOAN-KETTERING CANCER CENTER, priority 2017, published 2020)
